Assay results published in the DeepSol protein solubility set.

Assay: soluble on expression in E. coli; label from the status in PepcDB or PDB records

Sequence | soluble on expression in E. coli
MGCAVSQESAIATVSSSSNTATTSTSSSNTSQKWATSRTSRPVTNVTQVSAIHTTSMDSGSSTVQLPSPRGSLTTAVSTSSSGAQRQMSANSERSLHTRPLSETAVILQSQAVKMSTGAGDSAVYEAVERGSLYSLDYRVYIKGPQGIVSPWHDIPLFANKDKRVYNMIVEIPRWTNAKMEMATKEPFSPIKQDEKKGVARFVHNIFPHKGYIWNYGALPQTWEDPNHVVPDTGAKGDNDPIDVIEVGSKVAGRGAVLQVKVLGTLALIDEGETDWKLVAIDVNDENADKLNDIDDVEKVYPGLLAASVEWFRNYKIPAGKPANEFAFNGEFKNREYAEKVIDETNEYWKTLIKEANPSLNTVSRVPEAVHQGTDEAAATAIGATPEHGANAPLPGDVDKWHFVQG | not soluble
MDSGYWQSQFEDWLRHHHQEQDAAHDIFHFRRVWATAQTLGENSPVDWLVVLSACYFHDIVSLAKNHPQRHRSSILAAAETRRIFLRDFPDFPAEKLAGICHAIEAHSFSAKIAPTTPEAKIVQDADRLEALGAIGLARVFAVSGALGVALFDADDPFANRRPLNDKQFALDHFQTKLLKLPLTMQTERGKSLAQRNADFLVSYMAKLSAELKGDYETRDDAVIQMFATHQLEHHHHHH | soluble
GPGSMPRGSSKSKKEVSEEPKTTGGSGGDATETSPPTPKAKKGKGGDKMLVNEPNDEKHTVEDARTVQTPSDHETSAARKKPPPKDVKDEKKSEPAHGGGRLLKNNPNDEVVPVEGMHNVATPRSGLITTESDGAKGTMLRNAPHDEAIPVSGHAITMDTPKRTIDVHPGTITNTDDDDDPKSTEEEESVPIGRTRGYCNPRPEAINLEAEVPETTAPNLGYKPQEYAMVNANASREVQELFKRILDYQPQTPELPAKLRPFIPDYVPSIGDLDPFCKIPRPDGKPDGLGIYVLDEPSVAQSNPAVVLLELRATNIHSVGGLAEAVDSFEDAANRPEVIDRWINDVKKVHYKKPLPTINYQKPMPEIDLLLQVWPQEFEEFLNSDVQFPPPQIDLDLDQYVRALCCILDIPTYTSLIDSLHVMFTLYQEFRANQHFQHE | soluble
MRMGRYFGTSGIREVVNEKLTPELALKVGLALGTYLQEGKVVIGCDTRTSSVMLKNAVISGLLATGIDVIDIGLAPTPLTGFAIRLYNAEAGVTITASHNPPQYNGIKVWDRDGMAYTPDKEHELEKIIESGNFRRVPWNEVGTLKTANPRKEYIEAILREINLKGSYTVVIDAGNGAGSIVSPYLHRELGNRVITLNSDPSGFFVRELEPNKESLSMLEKTVKVLNADIGIAHDGDADRVGVVDENGEFVEYEVMLSLIAGYMLKKYGKGKIVTTVDAGFALDDYIRELGGEVVRTRVGDVAVAEELVKHGGVFGGEPSGTWIMPQWNLTPDGIFASALVLEMIDRLGPIGELAKDVPKYVTLRKKIPCSNELKNKVMNKIADLIPREFSYERIITIDGIRIENDDWWILFRPSGTEPIMRITLEAHTEEMAERLMKKAENLVKSVIKDLSS | soluble
MGSDKIHHHHHHMTGQMNILLANPRGFCAGVDRAISIVERALELFSPPIYVRHEVVHNRYVVQNLKDRGAIFVEELDQVPDNSIVIFSAHGVSQAVRAEAKKRGLKVFDATCPLVTKVHLQVTRASRKGVECILIGHEGHPEVEGTMGQYDNPEGGVYLIESVEDVEALQVKDPENLCFVTQTTLSVDDTLDIIAALQAKFPSIEGPRKDDICYATQNRQDAVRSLATQAKLFIVVGSKNSSNSNRLRELAEKSGAQAYLVDSAADVKAEWFANVDKVAVTAGASAPEVLVKQVIDAITHLAPSVVTEVEGRKEDVVFAVPVELR | not soluble
MGSDKIHHHHHHMTQEDKKLSCTDCALLNCHKKDKTFPQFCLTTHTPEETIEGVNELYRKDDFVAKLSNAAAEIEGTYYGKLTRVEEIMAFAKRIGAKKIGIATCVGLMSEARIFAKILKAKGLESYGIICKVGAVDKTQVGVPEELKVNKGCHESLCNPVLQATLLNEEKTDLNVIVGLCVGHDSLFIKYSEAPVTTLITKDRVLGHNPAAALYASGFYYRRLLQEGDL | not soluble
MNNTDYMIHLLARTIKTGKDELITPLIIQLSDMQVSRDLLEKHNLPALVAEYAPFNEAAKSLSKSVLAWKYEEIAQEMPQLLKEFVQIAKEKRVPEEFMVRLVTSLMDFDDLDTVRSCLEILNHFEFSLDEYEELGIYRKATQFEGQFRDADEIIAKVDVLLLQDEILEEDEAEVEADDLIGHAEENEEEENDFSDDESVISETESGIYTDEELELEDHFEAVRKEDRKDQVMTEICMMLLAGYIRSGNSEVISAAIKFTWAFDYSLEMYQKYDIQNLIYNFGVHNDDAELLMNHIKELQARELFNENRKFFKRFLRTCMEEKTITDSVLSYLKGFLENGDDYMVSCTLKFLLGMPITLSQFKTSHVEACLENLESGPSAQLGFMLKMKIQKLEHSEKS | not soluble
THILTLTSGFHLWSHTENSGKKSKIIAVHGGPGETHESFETLPLGVPNAEITSYDQLGSWYSDQPDFSDPKLAKKYLRIEYFVNELEEVRRQLEYDKFILLGYSWGAMIALEYALKYPGNLDKLVIVGMSDRESDFTDRMKDEVAKVLSKDEAKYVFTEAKKGELDDPLFNQFMEKFYNDYYSRFSKSQSKHAIDISNYQVANYMMGTNPFHTEGMMSGWNVSDKLYRIKTPTLILVGDQDMISPKKARVMADKLPNGKLEIIPDATHVSLRDNPEYFFQQLNQFLTN | not soluble
AAEKTGKCRVVTTTGTADWSVRESFNNYLEGPIANGAAYKYHGGIEVRDGVETTGTKSAREFTWPVLGSEEGAVKLGGGVHWTGHNHYSGDDESQAPDNFILDLDFSNPTVKFDGNEGTLLVDFKSREFVDTKTVADFLTGTQAELATITFDEPIDLTQENVTVTGQTKLTATGVDVMGTFYPEGEALAPITLNLTN | not soluble
SIRTSFIKLPGSDGSRYCDSWRLAAETNNVGTWDLIPSICVDSVAEYLNGDQFLSDYSVIVDYALAFAKSVEISGDGKDVWIFDIDETLLTNIDYYKAHGYGSEPYDDNKFSEWVEQGTAPAFDASLRLYNALKKLGFTIILLTGRDEHQRTSTETNLRDAGYSGWERLLLRGPNDQGKSATNYKSEQRSKLIEEGFKIRGNSGDQWSDLQGFAVADRSFKVPNPMYYIP | soluble
SLKIYRSTLLHTPASPFAVPDALQTFSDGALAVGDTGTIAHLGTFTEVLAEVRAACPDAEVHDLRGGVLLPGFIDTHVHYPQVRVLGGLGMALLEWLDRNTLPEEARLADAAYARTIAGEFLHGLASHGTTTALVFGSHFAGAMDEFFAEAAARGLRVVAGQVVSDRLLRPELHTTPERAYAEGKALIERWHGQGRSLYAVTPRFSLSASEGILDACAALLTEFPDVRFTSHINENNQEIEVVRGLFPGARDYLDTYERAGLVTPRSVFAHNVHPNERELGVLAAQRCSVAHCPCSNSALGSGLFPLRRHLAAGVHVALGTDVGGGTGFSLLKEGLQAYFMQQLLGEEGAALSPAHLLYLATLAGAQALGLDGQVGDFTPGKQFDAVWLRPRAGSTLATVLAHAESEERTLAALFALGTGDDVERVWVGGGVVFAREAEA | soluble
MAHHHHHHMTSFMLATNCPDELCCALCLDSWKKPVELQPCGHIFCQECIGAPRVCPVCRAPVNCTKQPHRSLVNLAQNLPVRCSSCGWTGRREGSDSHTCPTASWSGSTEAPSTTNAQSTCQGSRQQSVADTPWLRYGLTQEEYDSIVALFVFFDSDESGHLCREEMGRLARWLNFARTDDDIDRMFREMDEDGTGTLCLEEFLSWLSKNRPDPSVLYGMSQQQYNCVMMQFRLYDRDRDGFLDADDFSKLAVRIGDVPDIESGMQLFRSITTGHCEKIGLHQFLLYCVGRMFR | not soluble
MRHVISVLVQDHPRVLNRITGLFARRGFNLESLAVGTTHQPGLSRICLVVSGDDRTLEQVEKQLNRLIEVLKVTDHTEPHVERELCLVKVHVAGLEERLAVKDIQEAFRARVVDVAQKSLILELTGDTQKVNSFIEALRPYGILEVMRTGAVAMSRGDRVLKVREKKEAV | soluble
PFSWMKFVVISRTDLEENGREILIHECAHIRKHHSWDLLIADICIFFQWFNPGAWLLKQELQNIHEYEADEAVINEGINARDYQLLLI | not soluble
MASRKTVNRRQRPQRATSNVFAMFDQAQIQEFKEAFNMIDQNRDGFIDQEDLKDMFASLGKEVTEQFIDSMINEAPGAQPINFTMFLTLFGEKLTGTDPEEVIRNAFQCFDEDNSGKLNEEHLRELLTTMGERYSEEQVDELFRDAPIKGGQFDYVEFTRMLKHGTKDKDEA | not soluble
